Measurements from patent US20170266254A1 (AILERON THERAPEUTICS, published 2017).
Bridges are numbered along the chain shown (N, C = ends). [ ]: non-standard residue; d: D form. R8 = C=CCCCCCC[C@@](C)(N)C(=O)O; S5 = C=CCCC[C@](C)(N)C(=O)O

T1: C-terminally 6x Histidine-tagged Beta-Catenin (aa 134-668, 59 KD) (UniProt P35222 134-668)
T1 construct: range 134-668; Armadillo repeat region
T1 sequence: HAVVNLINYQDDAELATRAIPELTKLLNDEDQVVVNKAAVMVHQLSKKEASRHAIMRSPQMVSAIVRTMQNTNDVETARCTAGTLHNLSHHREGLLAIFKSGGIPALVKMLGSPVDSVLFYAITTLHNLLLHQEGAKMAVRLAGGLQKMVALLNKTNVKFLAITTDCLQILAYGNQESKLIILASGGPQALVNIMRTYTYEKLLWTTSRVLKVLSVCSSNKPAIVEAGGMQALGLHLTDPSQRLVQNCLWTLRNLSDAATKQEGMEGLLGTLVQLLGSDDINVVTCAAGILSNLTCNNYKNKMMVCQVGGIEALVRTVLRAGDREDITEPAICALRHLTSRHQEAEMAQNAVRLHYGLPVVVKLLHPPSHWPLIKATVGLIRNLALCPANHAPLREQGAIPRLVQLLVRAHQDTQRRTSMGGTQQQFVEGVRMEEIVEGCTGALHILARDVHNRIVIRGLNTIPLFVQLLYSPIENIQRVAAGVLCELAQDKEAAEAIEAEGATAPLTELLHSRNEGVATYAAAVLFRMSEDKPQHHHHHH

B1: SP5 (peptide)
peptide: Ac-RNLADVKS[S5]LVN[S5]S-NH2
modifications: staple 9-13
SMILES: CC(=O)N[C@@H](CCCNC(=N)N)C(=O)N[C@@H](CC(N)=O)C(=O)N[C@@H](CC(C)C)C(=O)N[C@@H](C)C(=O)N[C@@H](CC(=O)O)C(=O)N[C@H](C(=O)N[C@@H](CCCCN)C(=O)N[C@@H](CO)C(=O)N[C@@]1(C)CCCC=CCCC[C@@](C)(C(=O)N[C@@H](CO)C(N)=O)NC(=O)[C@H](CC(N)=O)NC(=O)[C@H](C(C)C)NC(=O)[C@H](CC(C)C)NC1=O)C(C)C
B2: SP43 (peptide)
peptide: Ac-SA[S5]RDL[S5]NVKSSLV-NH2
modifications: staple 3-7
SMILES: CC(=O)N[C@@H](CO)C(=O)N[C@@H](C)C(=O)N[C@@]1(C)CCCC=CCCC[C@@](C)(C(=O)N[C@@H](CC(N)=O)C(=O)N[C@H](C(=O)N[C@@H](CCCCN)C(=O)N[C@@H](CO)C(=O)N[C@@H](CO)C(=O)N[C@@H](CC(C)C)C(=O)N[C@H](C(N)=O)C(C)C)C(C)C)NC(=O)[C@H](CC(C)C)NC(=O)[C@H](CC(=O)O)NC(=O)[C@H](CCCNC(=N)N)NC1=O
notes: also called Ac-SA$RDL$NVKSSLV-NH2
B3: SP56 (peptide)
peptide: Ac-RDLA[S5]VVS[S5]LVNES-NH2
modifications: staple 5-9
SMILES: CC(=O)N[C@@H](CCCNC(=N)N)C(=O)N[C@@H](CC(=O)O)C(=O)N[C@@H](CC(C)C)C(=O)N[C@@H](C)C(=O)N[C@@]1(C)CCCC=CCCC[C@@](C)(C(=O)N[C@@H](CC(C)C)C(=O)N[C@H](C(=O)N[C@@H](CC(N)=O)C(=O)N[C@@H](CCC(=O)O)C(=O)N[C@@H](CO)C(N)=O)C(C)C)NC(=O)[C@H](CO)NC(=O)[C@H](C(C)C)NC(=O)[C@H](C(C)C)NC1=O
notes: also called Ac-RDLA$VVS$LVNES-NH2
B4: SP55 (peptide)
peptide: Ac-SA[S5]RNL[S5]DVKSSLV-NH2
modifications: staple 3-7
SMILES: CC(=O)N[C@@H](CO)C(=O)N[C@@H](C)C(=O)N[C@@]1(C)CCCC=CCCC[C@@](C)(C(=O)N[C@@H](CC(=O)O)C(=O)N[C@H](C(=O)N[C@@H](CCCCN)C(=O)N[C@@H](CO)C(=O)N[C@@H](CO)C(=O)N[C@@H](CC(C)C)C(=O)N[C@H](C(N)=O)C(C)C)C(C)C)NC(=O)[C@H](CC(C)C)NC(=O)[C@H](CC(N)=O)NC(=O)[C@H](CCCNC(=N)N)NC1=O
notes: also called Ac-SA$RNL$DVKSSLV-NH2
B5: SP8 (peptide)
peptide: Ac-RDLANVKS[S5]LVN[S5]S-NH2
modifications: staple 9-13
SMILES: CC(=O)N[C@@H](CCCNC(=N)N)C(=O)N[C@@H](CC(=O)O)C(=O)N[C@@H](CC(C)C)C(=O)N[C@@H](C)C(=O)N[C@@H](CC(N)=O)C(=O)N[C@H](C(=O)N[C@@H](CCCCN)C(=O)N[C@@H](CO)C(=O)N[C@@]1(C)CCCC=CCCC[C@@](C)(C(=O)N[C@@H](CO)C(N)=O)NC(=O)[C@H](CC(N)=O)NC(=O)[C@H](C(C)C)NC(=O)[C@H](CC(C)C)NC1=O)C(C)C
B6: SP50 (peptide)
peptide: LGANDELISFADEGAQEEKSS
chain: AARDLANVKSSLV
modifications: not fully specified; N-terminal acetyl; C-terminal amide; PEG3 = NH-(PEG)3-COOH (16 atoms) linker between the two peptide parts; $ = (S)-alpha-(2'-pentenyl)alanine at positions 11 and 15 of the first part and at positions 2 and 6 of the second part, each pair joined by an all-carbon crosslinker with one double bond
notes: The two peptide parts are joined by a non-peptide PEG3 spacer, not by a peptide bond
B7: SP7 (peptide)
peptide: Ac-RDLA[R8]VKSSLV[S5]QS-NH2
modifications: staple 5-12
SMILES: CC(=O)N[C@@H](CCCNC(=N)N)C(=O)N[C@@H](CC(=O)O)C(=O)N[C@@H](CC(C)C)C(=O)N[C@@H](C)C(=O)N[C@]1(C)CCCCCCC=CCCC[C@@](C)(C(=O)N[C@@H](CCC(N)=O)C(=O)N[C@@H](CO)C(N)=O)NC(=O)[C@H](C(C)C)NC(=O)[C@H](CC(C)C)NC(=O)[C@H](CO)NC(=O)[C@H](CO)NC(=O)[C@H](CCCCN)NC(=O)[C@H](C(C)C)NC1=O
notes: also called Ac-RDLA$r8VKSSLV$QS-NH2
B8: SP54 (peptide)
peptide: Ac-SA[S5]RDL[S5]NVKSSLV-NH2
modifications: staple 3-7
SMILES: CC(=O)N[C@@H](CO)C(=O)N[C@@H](C)C(=O)N[C@@]1(C)CCCC=CCCC[C@@](C)(C(=O)N[C@@H](CC(N)=O)C(=O)N[C@H](C(=O)N[C@@H](CCCCN)C(=O)N[C@@H](CO)C(=O)N[C@@H](CO)C(=O)N[C@@H](CC(C)C)C(=O)N[C@H](C(N)=O)C(C)C)C(C)C)NC(=O)[C@H](CC(C)C)NC(=O)[C@H](CC(=O)O)NC(=O)[C@H](CCCNC(=N)N)NC1=O
notes: as for B2
B9: SP51 (peptide)
peptide: LGANDELISFADEGAQEEKSS
chain: AARDLANVKSSLV
modifications: not fully specified; N-terminal acetyl; C-terminal amide; PEG4 = NH-(PEG)4-COOH (19 atoms) linker between the two peptide parts; $ = (S)-alpha-(2'-pentenyl)alanine at positions 11 and 15 of the first part and at positions 2 and 6 of the second part, each pair joined by an all-carbon crosslinker with one double bond
notes: The two peptide parts are joined by a non-peptide PEG4 spacer, not by a peptide bond
B10: SP6 (peptide)
peptide: Ac-RDLA[S5]VKS[S5]LVNQS-NH2
modifications: staple 5-9
SMILES: CC(=O)N[C@@H](CCCNC(=N)N)C(=O)N[C@@H](CC(=O)O)C(=O)N[C@@H](CC(C)C)C(=O)N[C@@H](C)C(=O)N[C@@]1(C)CCCC=CCCC[C@@](C)(C(=O)N[C@@H](CC(C)C)C(=O)N[C@H](C(=O)N[C@@H](CC(N)=O)C(=O)N[C@@H](CCC(N)=O)C(=O)N[C@@H](CO)C(N)=O)C(C)C)NC(=O)[C@H](CO)NC(=O)[C@H](CCCCN)NC(=O)[C@H](C(C)C)NC1=O
notes: also called Ac-RDLA$VKS$LVNQS-NH2

biological target: T1, C-terminally 6x Histidine-tagged …; assay: competitive fluorescence polarization, FAM-labelled linear probe as competitor, His-tagged beta-catenin 134-668
Procedure, shortened: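 FP competition in 25 mM Tris-HCl pH 7.5, 200 mM NaCl, 5 mM CHAPS, 2 mM DTT at room temperature. Competitor peptides at 40–0.7 μM 2× working range, constant DMSO. Probe (benchmark peptide with N-terminal FAM via β-Ala spacer) from 25 nM 10× stock. Read after 3 h in the dark, ex 485/em 528 nm.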

Row | IC50 [µM] | Binder
1 | ≥ 100 | B1
2 | ≥ 100 | B2
3 | ≥ 100 | B3
4 | ≥ 100 | B4
5 | ≥ 100 | B5
6 | 1.1 | B6
7 | ≥ 100 | B7
8 | ≥ 100 | B8
9 | 0.603 | B9
10 | ≥ 100 | B10
